The target of experiment [1] is biotinylated IgG from human serum (Rockland Immunochemicals) (human). The experiment can be described thus: BLI, equilibrium KD, soluble sample on immobilized hIgG.
For experiment [2] the target is unchanged. Description: BLI, kinetic fit values (1:1 model), soluble sample on immobilized hIgG.
Experiment [3] has the same target. The experiment can be described thus: BLI (Octet), equilibrium titration of soluble analyte on biotinylated hIgG on streptavidin tips.

Sequence of Ab+Inv HC17 (HP6017 with invertase fused to the C-terminus of the heavy chain by an AS(G4S)3 linker) (heavy): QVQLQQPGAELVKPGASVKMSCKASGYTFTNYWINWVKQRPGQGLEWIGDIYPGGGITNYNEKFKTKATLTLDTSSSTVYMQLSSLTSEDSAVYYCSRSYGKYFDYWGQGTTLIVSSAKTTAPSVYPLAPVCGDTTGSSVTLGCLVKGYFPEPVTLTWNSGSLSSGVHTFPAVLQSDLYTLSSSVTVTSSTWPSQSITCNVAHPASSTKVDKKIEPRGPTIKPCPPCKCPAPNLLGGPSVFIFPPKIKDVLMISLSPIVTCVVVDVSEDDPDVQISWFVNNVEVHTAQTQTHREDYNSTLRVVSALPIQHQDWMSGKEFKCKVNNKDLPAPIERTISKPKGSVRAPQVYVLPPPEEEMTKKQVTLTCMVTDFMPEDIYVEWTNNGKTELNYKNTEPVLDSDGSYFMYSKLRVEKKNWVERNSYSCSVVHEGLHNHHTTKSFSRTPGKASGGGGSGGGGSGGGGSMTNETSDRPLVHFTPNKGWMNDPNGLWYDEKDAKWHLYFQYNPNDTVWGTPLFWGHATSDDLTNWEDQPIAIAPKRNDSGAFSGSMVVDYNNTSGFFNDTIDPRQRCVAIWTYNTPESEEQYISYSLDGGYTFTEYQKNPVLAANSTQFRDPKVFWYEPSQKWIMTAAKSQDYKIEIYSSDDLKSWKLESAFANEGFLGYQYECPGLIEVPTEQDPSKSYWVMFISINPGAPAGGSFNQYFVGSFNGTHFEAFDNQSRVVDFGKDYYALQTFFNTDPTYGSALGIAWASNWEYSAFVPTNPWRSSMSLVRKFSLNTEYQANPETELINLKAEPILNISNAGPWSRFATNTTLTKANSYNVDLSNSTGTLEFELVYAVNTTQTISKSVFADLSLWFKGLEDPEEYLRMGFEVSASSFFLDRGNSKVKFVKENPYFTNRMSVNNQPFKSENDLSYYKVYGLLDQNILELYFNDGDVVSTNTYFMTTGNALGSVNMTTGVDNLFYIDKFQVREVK
Sequence of Ab+Inv HC17 (HP6017 with invertase fused to the C-terminus of the heavy chain by an AS(G4S)3 linker) (light): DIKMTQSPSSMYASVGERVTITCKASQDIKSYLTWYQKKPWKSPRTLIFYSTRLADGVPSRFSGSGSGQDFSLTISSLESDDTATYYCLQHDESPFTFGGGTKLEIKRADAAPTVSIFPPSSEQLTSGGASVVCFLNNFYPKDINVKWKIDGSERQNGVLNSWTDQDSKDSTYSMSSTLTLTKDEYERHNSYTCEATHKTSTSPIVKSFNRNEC
Sequence of Ab+Inv HC27 (HP6017 with invertase fused to the C-terminus of the heavy chain by an AS(G4S)5 linker) (heavy): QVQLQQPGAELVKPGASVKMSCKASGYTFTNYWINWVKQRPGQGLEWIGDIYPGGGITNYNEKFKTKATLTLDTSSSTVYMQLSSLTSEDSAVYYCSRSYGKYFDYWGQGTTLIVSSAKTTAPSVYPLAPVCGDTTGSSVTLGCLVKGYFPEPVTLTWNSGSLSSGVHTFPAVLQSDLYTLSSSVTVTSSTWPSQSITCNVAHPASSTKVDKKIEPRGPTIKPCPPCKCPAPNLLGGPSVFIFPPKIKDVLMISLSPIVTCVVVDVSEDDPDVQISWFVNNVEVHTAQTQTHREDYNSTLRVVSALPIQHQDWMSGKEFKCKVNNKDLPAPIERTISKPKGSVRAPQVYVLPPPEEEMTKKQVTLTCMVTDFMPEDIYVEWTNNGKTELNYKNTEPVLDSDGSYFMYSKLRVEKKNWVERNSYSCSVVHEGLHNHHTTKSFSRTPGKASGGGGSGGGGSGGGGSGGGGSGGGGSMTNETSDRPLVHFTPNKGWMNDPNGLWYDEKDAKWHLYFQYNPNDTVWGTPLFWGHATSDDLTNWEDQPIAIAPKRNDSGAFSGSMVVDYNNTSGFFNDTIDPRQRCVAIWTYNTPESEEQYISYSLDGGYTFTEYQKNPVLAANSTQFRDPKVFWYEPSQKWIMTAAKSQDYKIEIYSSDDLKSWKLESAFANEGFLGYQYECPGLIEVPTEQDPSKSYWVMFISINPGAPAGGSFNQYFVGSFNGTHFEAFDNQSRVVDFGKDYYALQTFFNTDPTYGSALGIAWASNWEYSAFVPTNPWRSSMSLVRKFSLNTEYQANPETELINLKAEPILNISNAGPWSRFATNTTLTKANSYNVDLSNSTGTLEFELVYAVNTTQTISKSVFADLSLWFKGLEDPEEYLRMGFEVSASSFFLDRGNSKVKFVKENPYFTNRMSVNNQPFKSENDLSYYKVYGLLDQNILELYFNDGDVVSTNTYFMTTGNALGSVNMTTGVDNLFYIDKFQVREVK
Sequence of Ab+Inv LC25 (HP6017 with invertase fused to the C-terminus of the light chain by a (G4S)5 linker) (heavy): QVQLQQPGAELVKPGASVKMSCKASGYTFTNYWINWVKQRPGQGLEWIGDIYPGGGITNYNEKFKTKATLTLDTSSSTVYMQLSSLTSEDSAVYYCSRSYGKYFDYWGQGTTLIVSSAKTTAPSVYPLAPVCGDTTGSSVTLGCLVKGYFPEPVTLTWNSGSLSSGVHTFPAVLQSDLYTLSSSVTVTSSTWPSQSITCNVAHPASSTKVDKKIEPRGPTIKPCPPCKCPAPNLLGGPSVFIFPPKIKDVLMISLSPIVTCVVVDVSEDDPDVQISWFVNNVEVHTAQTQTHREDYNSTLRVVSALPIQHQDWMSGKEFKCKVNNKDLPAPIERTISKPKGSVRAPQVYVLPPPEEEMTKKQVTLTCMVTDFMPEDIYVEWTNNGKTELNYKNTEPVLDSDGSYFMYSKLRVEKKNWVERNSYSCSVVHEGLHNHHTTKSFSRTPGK
Sequence of Ab+Inv LC25 (HP6017 with invertase fused to the C-terminus of the light chain by a (G4S)5 linker) (light): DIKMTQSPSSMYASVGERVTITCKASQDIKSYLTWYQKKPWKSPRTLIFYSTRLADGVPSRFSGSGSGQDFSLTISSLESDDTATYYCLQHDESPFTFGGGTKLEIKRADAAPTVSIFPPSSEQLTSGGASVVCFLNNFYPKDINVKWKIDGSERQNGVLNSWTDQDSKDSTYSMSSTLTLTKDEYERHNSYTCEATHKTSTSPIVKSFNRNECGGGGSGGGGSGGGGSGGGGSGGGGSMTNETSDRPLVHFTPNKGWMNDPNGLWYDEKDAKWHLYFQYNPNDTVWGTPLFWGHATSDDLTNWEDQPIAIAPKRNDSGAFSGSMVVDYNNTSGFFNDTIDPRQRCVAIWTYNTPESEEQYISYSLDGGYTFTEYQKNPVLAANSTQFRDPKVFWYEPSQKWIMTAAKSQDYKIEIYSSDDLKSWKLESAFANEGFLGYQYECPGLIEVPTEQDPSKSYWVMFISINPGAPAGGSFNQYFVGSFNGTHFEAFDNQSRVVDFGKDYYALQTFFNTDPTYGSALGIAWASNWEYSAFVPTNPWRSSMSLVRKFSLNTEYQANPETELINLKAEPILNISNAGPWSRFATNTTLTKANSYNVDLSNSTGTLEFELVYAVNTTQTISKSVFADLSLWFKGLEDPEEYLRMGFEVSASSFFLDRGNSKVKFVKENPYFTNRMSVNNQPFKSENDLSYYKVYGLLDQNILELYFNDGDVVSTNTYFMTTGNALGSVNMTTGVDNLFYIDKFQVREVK
Sequence of Ab+Inv LC15 (HP6017 with invertase fused to the C-terminus of the light chain by a (G4S)3 linker) (light): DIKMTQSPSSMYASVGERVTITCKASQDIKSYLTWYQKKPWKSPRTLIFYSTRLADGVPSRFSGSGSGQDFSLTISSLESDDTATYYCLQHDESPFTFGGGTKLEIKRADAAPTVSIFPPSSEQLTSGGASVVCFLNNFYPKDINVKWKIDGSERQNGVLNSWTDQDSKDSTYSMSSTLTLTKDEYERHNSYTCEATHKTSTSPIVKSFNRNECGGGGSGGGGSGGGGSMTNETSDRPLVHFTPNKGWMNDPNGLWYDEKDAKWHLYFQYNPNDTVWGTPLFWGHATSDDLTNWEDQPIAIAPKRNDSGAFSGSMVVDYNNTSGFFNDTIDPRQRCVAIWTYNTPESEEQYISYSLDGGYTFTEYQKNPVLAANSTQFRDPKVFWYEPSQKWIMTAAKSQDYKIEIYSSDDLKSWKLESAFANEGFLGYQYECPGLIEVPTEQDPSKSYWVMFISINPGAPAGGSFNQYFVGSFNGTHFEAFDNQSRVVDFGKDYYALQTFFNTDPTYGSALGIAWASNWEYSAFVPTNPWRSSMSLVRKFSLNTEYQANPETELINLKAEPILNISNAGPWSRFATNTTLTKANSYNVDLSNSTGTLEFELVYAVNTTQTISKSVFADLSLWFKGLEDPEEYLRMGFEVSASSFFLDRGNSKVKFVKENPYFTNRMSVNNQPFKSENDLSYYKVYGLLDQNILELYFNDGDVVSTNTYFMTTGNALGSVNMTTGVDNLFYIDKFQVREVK

On to “Ab+Inv HC17 (HP6017 with invertase fused to the C-terminus of the heavy chain by an AS(G4S)3 linker)”, for which the Kd in experiment [1] was 21 nM. In experiment [2], this substance returned a dissociation constant (Kd) of less than 0.001 nM, an off-rate constant (koff) of less than 1e-07 s⁻¹ and a kon of 430000 M⁻¹ s⁻¹. The substance also had an EC50 (read off the curve) in experiment [3] of 20 nM.

For “recombinant antibody HP6017 (anti-human IgG, mouse IgG2a kappa)”, the Kd in experiment [1] was determined as 18 nM. Also, in experiment [2], the Kd is less than 0.001 nM, the off-rate (koff) is less than 1e-07 s⁻¹ and the kon was determined as 490000 M⁻¹ s⁻¹. This substance came in with an EC50 (read off the curve) in experiment [3] of 20 nM.

“Ab+Inv LC25 (HP6017 with invertase fused to the C-terminus of the light chain by a (G4S)5 linker)” gave a Kd in experiment [1] of 17 nM. In experiment [2], this substance had a dissociation constant Kd of less than 0.001 nM, a koff of less than 1e-07 s⁻¹ and a kon of 1.61e+06 M⁻¹ s⁻¹.

Substance “Ab+Inv LC15 (HP6017 with invertase fused to the C-terminus of the light chain by a (G4S)3 linker)” came in with a Kd in experiment [1] of 16 nM. In experiment [2], this substance showed a Kd of less than 0.001 nM, a koff of less than 1e-07 s⁻¹ and a kon of 1.46e+06 M⁻¹ s⁻¹. This substance also gave an EC50 (read off the curve) in experiment [3] of 20 nM.

Substance “Ab+Inv HC27 (HP6017 with invertase fused to the C-terminus of the heavy chain by an AS(G4S)5 linker)” yielded a Kd in experiment [1] of 25 nM. In experiment [2], the Kd is less than 0.001 nM, the off-rate constant (koff) was less than 1e-07 s⁻¹ and the kon stood at 450000 M⁻¹ s⁻¹. The substance also gave an EC50 (read off the curve) in experiment [3] of 30 nM.

Values taken from patent US20250155449A1.
